# Data taken from the supplement of paper PMC12764529.
# ± gives the half width of the 95% confidence interval.
# Tests used:
# [1] = folding stability dG unfold from chymotrypsin proteolysis; higher = more stable
# Summary of the method: (§1)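 Only designs with AlphaFold2 dimer inter-PAE above 15 were retained; each was a mini-protein under 80 residues with no cysteine, in a PA-tagged cDNA display construct. After digestion with trypsin and chymotrypsin and sequencing, K50 was inferred by Bayesian fitting of counts, and unfolding free energy was derived per protease or combined against a sequence-predicted unfolded-state K50 and a shared folded-state K50.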
# [2] = folding stability dG unfold (combined trypsin and chymotrypsin); higher = more stable
# Summary of the method: as §1
# [3] = folding stability dG unfold from trypsin proteolysis; higher = more stable
# Summary of the method: as §1
Sequence,folding stability dG unfold [1] [kcal/mol],folding stability dG unfold [2] [kcal/mol],folding stability dG unfold [3] [kcal/mol]
SAGGSAGGSAGKKYKVVEVKENKDGTVELVVENENGEKKKITLSKEELDKLKAGDTVELKSAGGSAGGSAGG [r11_943_TrROS_Hall],2.7 ± 0.057,2.47 ± 0.14,2.01 ± 0.11
SAGGSAGGSAGKLRYRYRFDTVLLEVTYDPSTGEVVEVKVIPLSPLPPLTPEELYRLLEDSAGGSAGGSAGG [r11_320_TrMRF],3.071 ± 0.018,2.82 ± 0.056,2.25 ± 0.053
SAGGSAGGSAGKMYKLTIEKDGKEIEIIVSEDELKEIAKKLGLPPNAKIKVEKVSPEELKSAGGSAGGSAGG [r17_395_TrROS_Hall],3.8 ± 0.14,3.27 ± 0.17,2.21 ± 0.095
SAGGSAGGSAGKPIIKVKIIEKKDGYLKIEIEDEKTGETKTITLKPGQKLEIKLELVKEPSAGGSAGGSAGG [r11_738_TrROS_Hall],1.33 ± 0.064,1.62 ± 0.11,1.92 ± 0.15
SAGGSAGGSAGKPITADEVAERVARRLRELFGPDYDINVKVVKVLPGDYVLVDVEITGDLSAGGSAGGSAGG [r11_153_TrMRF],2.287 ± 0.021,2.28 ± 0.044,2.27 ± 0.032
SAGGSAGGSAGKPTLKLVLKFDSPEQAKAAAEALAKAGYKVKVELKEYPDGLYLVVTVEPSAGGSAGGSAGG [r11_677_TrROS_Hall],4.41 ± 0.13,4.2 ± 0.2,3.29 ± 0.12
SAGGSAGGSAGKTIVLKTPEAIKNLKEGDVIKLKDGKKYKIVKVEYDKETNYFTIEIEKESAGGSAGGSAGG [r11_316_TrROS_Hall],3.75 ± 0.17,3.54 ± 0.17,2.96 ± 0.13
SAGGSAGGSAGKTVQIWIPPDEITPEALKSLAREGWKIKPIEIRRNPEDGWISITIELKPSAGGSAGGSAGG [r11_345_TrROS],0.451 ± 0.36,0.619 ± 0.25,0.597 ± 0.076
SAGGSAGGSAGKVIKLEELKKKFPNMSPEELAAFFKKLGYKVEVVKVGDVPYVFLSPGEKSAGGSAGGSAGG [r11_707_TrMRF],3.676 ± 0.02,3.33 ± 0.049,2.2 ± 0.065
SAGGSAGGSAGKVTLTIPFTNEDGTKYIAEFTFDELEVEEDVEIKIVSLGENFDLVLKPESAGGSAGGSAGG [r11_733_TrMRF],1.67 ± 0.041,1.63 ± 0.1,1.47 ± 0.069
SAGGSAGGSAGKVVLAKAKVTPPDGSEYEFDLAIEVPDDVVLVVGLHFDYPDQVDFVFEGSAGGSAGGSAGG [r11_781_TrMRF],1.14 ± 0.017,1.2 ± 0.072,1.28 ± 0.03
SAGGSAGGSAGKVVLYLPGDGTAWVLKVGDGEAVLEAEPEKVEELLEKIPGTEAVPVPGLSAGGSAGGSAGG [r11_57_TrMRF],-0.0929 ± 0.23,0.425 ± 0.12,0.652 ± 0.026
SAGGSAGGSAGKVVVDFGKPALAEAFGVPLSEIENMSEEEALALAKPLVEEGVVDEVVLSSAGGSAGGSAGG [r11_80_TrMRF],0.524 ± 0.042,0.88 ± 0.099,1.26 ± 0.048
SAGGSAGGSAGKYEVTKIEVVKNEDGSEYLRVTIKVDGKEITITIPLEDAENIKIEIKPPSAGGSAGGSAGG [r17_64_TrROS_Hall],3.59 ± 0.036,3.38 ± 0.12,2.69 ± 0.086
